# Assay results: publication PMC4409310, “Substrate Recognition and Modification by the Nosiheptide Resistance Methyltransferase”
# Changes are numbered by the printed parent chain. In names and notes the source's numbering stands.
# B1: 29 nt RNA A1067G (structured_RNA)
# RNA: GGAUGUUGGCUUGGAAGCAGCCAUCAUUU
# B2: 58 nt RNA A1067G (structured_RNA)
# RNA: GGCCAGGAUGUUGGCUUGGAAGCAGCCAUCAUUUAAAGAAAGCGUAAUAGCUCACUGGCU
# B3: 58 nt RNA A1067C (structured_RNA)
# RNA: B2 RNA with G18C
# B4: 58 nt RNA A1067U (structured_RNA)
# RNA: B2 RNA with G18U
# B5: 29 nt RNA A1067C (structured_RNA)
# RNA: GGAUGUUGGCUUCGAAGCAGCCAUCAUUU
# B6: 29 nt RNA A1067U (structured_RNA)
# RNA: GGAUGUUGGCUUUGAAGCAGCCAUCAUUU
# B7: 29 nt RNA wt A1067 (structured_RNA)
# RNA: GGAUGUUGGCUUAGAAGCAGCCAUCAUUU
# Columns and labels:
# [1] = target: His-NHR (Streptomyces actuosus, UniProt P52391 1-274); test: fluorescence anisotropy; 5 mM Mg2+; Anisotropy: 25 mM HEPES-KOH pH 7.5, 25 mM NH4Cl, 5 mM MgCl2, 5 mM DTT, 2.5 uM RNA, 0-8 uM NHR, temperature not stated; EMSA: 25 mM HEPES-KOH pH 8.0, 25 mM NH4Cl, 5 mM MgCl2, 5 mM DTT, 4 C, 1 h, 6-10 uM RNA; conditions: protein: recombinant, tags: N-terminal His6 (pET-28a), chain copies: 2
# [2] = target: HA-His-NHR-R135A (His-NHR-M) (Streptomyces actuosus, UniProt P52391 1-274, R135A); test: EMSA; 5 mM Mg2+; R135A homodimer, less efficient than heterodimer; Anisotropy: 25 mM HEPES-KOH pH 7.5, 25 mM NH4Cl, 5 mM MgCl2, 5 mM DTT, 2.5 uM RNA, 0-8 uM NHR, temperature not stated; EMSA: 25 mM HEPES-KOH pH 8.0, 25 mM NH4Cl, 5 mM MgCl2, 5 mM DTT, 4 C, 1 h, 6-10 uM RNA; conditions: protein: recombinant; tags: HA, N-terminal His6; chain copies: 2; label: 3' fluorescein (anisotropy); none (EMSA, SYBR Gold); hairpin
# [3] = target: HA-His-NHR-R135A subunit of heterodimer;Flag-Trx-NHR subunit of heterodimer (Streptomyces actuosus;Streptomyces …, UniProt P52391;P52391 1-274;1-274, R135A|); test: EMSA; 5 mM Mg2+; WT/R135A heterodimer, more efficient than R135A homodimer; Anisotropy: 25 mM HEPES-KOH pH 7.5, 25 mM NH4Cl, 5 mM MgCl2, 5 mM DTT, 2.5 uM RNA, 0-8 uM NHR, temperature not stated; EMSA: 25 mM HEPES-KOH pH 8.0, 25 mM NH4Cl, 5 mM MgCl2, 5 mM DTT, 4 C, 1 h, 6-10 uM RNA; conditions: protein: recombinant;recombinant, tags: HA, N-terminal His6;Flag, thioredoxin, copies: 1;1, label: 3' fluorescein (anisotropy), none (EMSA, SYBR Gold), hairpin
# [4] = label: 3' fluorescein, folded single strand
Binder,"Kd ([1]; label: 3' fluorescein, hairpin)","Kd [1, 4]",also measured
B1,370 ± 30 nM,–,–
B2,–,770 ± 20 nM,–
B3,–,800 ± 20 nM,–
B4,–,910 ± 20 nM,–
B5,460 ± 40 nM,–,–
B6,630 ± 80 nM,–,–
B7,–,–,"binding result [2]: binds; Kd ([1]; label: 3' fluorescein (anisotropy), none (EMSA, SYBR Gold), hairpin): 370 ± 30 nM; binding result [3]: binds"
